The results in this text go back to article PMC9408933, “Discovery of the Key Mutation Site Influencing the Thermostability of Thermomyces lanuginosus Lipase by Rosetta Design Programs” (International Journal of Molecular Sciences, 2022).

Substrate in this data set: CCCCCCCCCCCCCCCC(=O)Oc1ccc([N+](=O)[O-])cc1
Nature of the data set: p-nitrophenol release, Michaelis-Menten fit. In kind it is biochemical, Thermomyces lanuginosus. The following applies: 37 °C, pH 9.0, 100 mM Tris-HCl, pNPP 0.08-10.00 mM, apparent Km. From the text:
p-nitrophenol release, Michaelis-Menten fit on TLL (Thermomyces lanuginosus lipase)

B1: TLL (Thermomyces lanuginosus lipase) (Thermomyces lanuginosus) (protein)
chain: EVSQDLFNQFNLFAQYSAAAYCGKNNDAPAGTNITCTGNACPEVEKADATFLYSFEDSGVGDVTGFLALDNTNKLIVLSFRGSRSIENWIGNLNFDLKEINDICSGCRGHDGFTSSWRSVADTLRQKVEDAVREHPDYRVVFTGHSLGGALATVAGADLRGNGYDIDVFSYGAPRVGNRAFAEFLTVQTGGTLYRITHTNDIVPRLPPREFGYSHSSPEYWIKSGTLVPVTRNDIVKIEGIDATGGNNQPNIPDIPAHLWYFGLIGTCL
notes: N-terminal His-tag, secreted from Pichia pastoris GS115 (pPIC9K), Ni-NTA purified
For B1, the Km is 0.16 ± 0.03 mM, the Vmax was 297 µmol/min/mg, the turnover number (kcat) is 850 ± 11.8 s⁻¹ and the kcat/Km stood at 5.31e+06 ± 74000 M⁻¹ s⁻¹.

Broadly, the Km is the substrate concentration at which the rate is half of its maximum. For orientation: Vmax means the top rate of the reaction or transport when substrate is in excess. For orientation: kcat means the number of substrate molecules converted per active site and unit of time at saturation. As a reminder, the kcat/Km is the turnover number divided by the Michaelis constant.
